From the nanobody polyreactivity screen of Harvey et al. (2022)

Assay: yeast display, Sf9 membrane polyspecificity reagent, FACS + sequencing; frameworks hold sequencing errors
Outline: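 Galactose-induced (36–48 hours) yeast carrying a synthetic nanobody display library were exposed to 10% biotinylated, detergent-solubilized Sf9 membrane reagent at 4 °C for 1 hour. FACS followed streptavidin microbead enrichment, using low and high (top ~1%) gates for expression (anti-HA) and reagent binding (streptavidin). Colony PCR, MiSeq 2 × 250 sequencing and CDR-length filtering followed. Labels for polyreactivity reflect the gate of origin.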

Sequence | polyreactivity (PSR sort gate)
QVQLVESGGGLVQAGGSLRLSCAASGFTFHYNAMGWYRQAPRKEREFVAAISGSGDRTYYADSVKGRFTISRDNAKNTVYLQMNSLKPEDTAVYYCATSVRQNYFYSYDYWGQGTQVTVSS | high polyreactivity
QVQLVESGGGFVQAGGSLRLSCAASGSIFYTYVMGWYRQAPGKERELVAAITWSGGSTYYADSVKGRFTISRDNAKNTVYLQMNSLKPEDTAVYYCAAVRGYRSSKYDYWGQGTQVTVSS | high polyreactivity
QVQLVESGGGLVQAGGSLRLSCAASGRTFKANAMGWYRQAPGKERELVAAISYSGGNTYYADSVKGRFTISRDNAKNTVYLQMNSLKPEDTAVYYCAARRGYGRENQFYSWGQGTQVTVSS | high polyreactivity
QVQLEESGVGLVQAGGSLRLICAASGITLFHYVMGWYRQAPGKERELVAVISSSGGSTYYADSVKGRFTISRDNAKNTVYLQMNSLKPEDTAVYYCAAETDSRKARVLYDCWGQGTQVTVSS | high polyreactivity
QVQLVESGGGLVQAGGSLRLSCAASGSIFQGYALGWYRQAPGKERELVAAITASGGSTYYADSVKGRFTISRDNAKNTVYLQMNSLKPEDTAVYYCATDSYWRQDLYRYEYWGQGTQVTVSS | high polyreactivity
QVQLVESGGGLVQAGGSLRLSCAASGRTFGRYAMGWYRQAPGKERELVAAINRGGSTKYADSVKGRFTISRDNAKNTVYLQMNSLKPEDTAVYYCAKDRHPALHYDYWGQGTQVTVSS | low polyreactivity
QVQLVESGGGLVQAGGSLRLSCAASGFTFAPYALGWYRQAPGKERELVAAIRRSGGSTYYADSVKGRFTISRDNAKNTVYLQMNSLKPEDTAVYYCAASTYQNGYGYWGQGTQVTVSS | high polyreactivity
QVHLVESGGGLVQAGGSLRLSCAASGIIFGRNVMGWYRQAPGKERELVAAISSSGGRTYYADSVKGRFTISRDNAKNTVYLQMNSLNPEVTAVYYCAADEVTKKNSFPRIMDYWGQGTQVTVSS | high polyreactivity
QVQLVESGGGLVQAGGSLRLSCAASGRTFKYYTMGWYRQAPGKERELVAAISGSGSRTYYADSVKGRFTISRDNAKNTVYLQMNSLKPEDTAVYYCAARRRISSGYSGPPWIYGYWGQGTQVTVSS | high polyreactivity
QVQLVESGRGLVQAGGSLRLSCAASGSIFKYYAMGWYRQAPGKERELVAAITSGGSTSYADSVKGRFTISRDNAKNTVYLQMNSLKPEDTAVYYCAAELRSWRSYGSVWRWYYYWGQGTQVTVSS | high polyreactivity
QVQLVESGGGLVQAGGSLRIICAASGRIFRENAMGWYRQAPGKAREWVAAISSGGSTYYADSVKGRFTISRDNAKNTDYLQMNSLKPEDPAVYYCAADLSWSRVVFGDYDYWGQGTHVTVSS | low polyreactivity
QVQLVESGGGLVQAGGSLRLSCAASGRIFTGYAMGWYRQAPGKERELVASITWRGGSTSYADSVKGRFTISRDNAKNTVYLQMNSLKPEDTAVYYCAAQKWYYPYYWGQGTQVTVSS | high polyreactivity
QVQLVESGGGLVQAGGSLRLSCAASGSTFKYNAMGWYRQAPGKERELDAAISSSGGSTSYADSVKGRFTISRDNAKNTVYLQMNSLKPEDTAVYYCAADSYPAYLGFVGFDYWGQGSQVTVSS | low polyreactivity
QVQLVESGGGLVQAGGSLRLSCAASGITSSIYAMGWDRQAPGKERELVAVSTTSGGSTYYADSVKGRYTISRDNAKNTVYLQMNSLKPEDTAVYYCAADSYFYLDLLEDYWGQGTKVTVSS | low polyreactivity
QVQLVESGGGLVQAGGSLRLSCAASGSTFSVYTMGWYRQAPGKERELVAAITSGGTYYADSVKGRFTISRDNAKNTVYLQMNSLKPEDTAVYYCAADVLSVGKHYDYWGQCTQVTVSS | low polyreactivity
QVQLVESGGGLVLAGGSLRLSCAASGRTFIGYALGWYRQAPGKERELVAAISPGGSTKYADSVKGRFTISRDNAKNTVYLQINSLKPEDNAVYYGAVGWSYYAGLRHRYYSGFDYWGQGTQVTVSS | low polyreactivity
QVQLVESGGGLVQEGGSLRLSCAASGRILYGYAMGWYRQAPGKERELVASITSSGGSKYADSVKGRFTISRDNAKNTVYLQMNSLKPEDTAVYYGATRRGPKWQWLTYGYWGQGTQVTVSS | low polyreactivity
